Measurements reported in US20220073581A1 (UCB, published 2022).

Columns and labels:
[1] = target: T1, EPO-R (EPO receptor, R&D Systems) (UniProt P19235 25-250); experiment: SPR (Biacore), Fab captured on anti-human F(ab)2, EPO-R injected
T1 sequence (looked up): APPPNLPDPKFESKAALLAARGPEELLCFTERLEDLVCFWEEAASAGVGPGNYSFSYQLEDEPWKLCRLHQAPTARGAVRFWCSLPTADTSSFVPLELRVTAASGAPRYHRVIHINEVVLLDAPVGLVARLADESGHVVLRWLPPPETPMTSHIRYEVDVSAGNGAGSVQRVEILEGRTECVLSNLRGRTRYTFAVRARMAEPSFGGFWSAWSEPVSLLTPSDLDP

[2] = target: T2, IL-2-Rβ (IL-2 receptor β chain, R&D Systems) (UniProt P14784 27-239); experiment: SPR (Biacore), Fab captured on anti-human F(ab)2, IL-2-Rβ injected
T2 construct: also called IL-2-sRβ
T2 sequence (looked up): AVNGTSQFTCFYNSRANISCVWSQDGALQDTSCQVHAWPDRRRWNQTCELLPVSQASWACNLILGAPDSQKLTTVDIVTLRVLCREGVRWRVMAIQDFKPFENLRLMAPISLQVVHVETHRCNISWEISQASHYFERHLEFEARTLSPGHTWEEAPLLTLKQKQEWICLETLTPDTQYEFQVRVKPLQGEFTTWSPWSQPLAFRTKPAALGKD

[3] = target: T3, GM-CSF receptor, cognate for the murine GM-CSF constructs (UniProt Q00941 30-327); experiment: SPR (Biacore), Fab captured on anti-human F(ab)2, GM-CSF receptor injected
T3 construct: also called GM-CSF-Ra; cognate GM-CSF receptor
T3 sequence (looked up): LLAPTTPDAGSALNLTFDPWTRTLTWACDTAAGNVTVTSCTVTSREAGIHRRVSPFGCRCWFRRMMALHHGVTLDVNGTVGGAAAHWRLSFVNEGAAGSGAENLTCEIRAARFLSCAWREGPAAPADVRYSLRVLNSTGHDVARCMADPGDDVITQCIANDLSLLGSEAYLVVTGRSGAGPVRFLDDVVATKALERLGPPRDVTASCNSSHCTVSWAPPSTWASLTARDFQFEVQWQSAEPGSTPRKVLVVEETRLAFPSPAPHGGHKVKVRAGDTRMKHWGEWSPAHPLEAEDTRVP

[4] = target: T4, GM-CSF receptor, cognate for the human GM-CSF constructs (GM-CSF-Ra, R&D Systems) (UniProt P15509 23-320); experiment: as above
T4 construct: also called cognate GM-CSF receptor
T4 sequence (looked up): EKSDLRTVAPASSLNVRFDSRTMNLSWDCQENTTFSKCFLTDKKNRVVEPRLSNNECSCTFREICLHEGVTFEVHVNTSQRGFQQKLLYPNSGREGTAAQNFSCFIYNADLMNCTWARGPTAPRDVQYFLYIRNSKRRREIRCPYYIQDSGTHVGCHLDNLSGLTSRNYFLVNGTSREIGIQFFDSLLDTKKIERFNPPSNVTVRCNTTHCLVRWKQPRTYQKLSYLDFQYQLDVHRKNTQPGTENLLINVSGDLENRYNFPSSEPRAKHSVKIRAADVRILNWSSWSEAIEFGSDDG

binding result [1]: no binding (tested: 50 nM) | binding result [2]: no binding (tested: 100 nM) | binding result [3]: no binding (tested: 100 nM) | binding result [4]: no binding (tested: 100 nM)
B1: CA645 Fab (unmodified, wild type, anti-human serum albumin) (Fab, V domains shown)
VH: EVQLLESGGGLVQPGGSLRLSCAVSGIDLSNYAINWVRQAPGKGLEWIGIIWASGTTFYATWAKGRFTISRDNSKNTVYLQMNSLRAEDTAVYYCARTVPGYSTAPYFDLWGQGTLVTVSS
VL: DIQMTQSPSSVSASVGDRVTITCQSSPSVWSNFLSWYQQKPGKAPKLLIYEASKLTSGVPSRFSGSGSGTDFTLTISSLQPEDFATYYCGGGYSSISDTTFGGGTKVEIKR
notes: Control without insert polypeptide; also called unmodified CA645 Fab; wild type CA645 Fab
